Values quoted from earlier work in patent US20240277840A1, “SUPERCONCENTRATED FORMULATIONS OF BIOACTIVE AGENTS” (UPKARA, INC., priority 2021, published 2024).

Settings: intraperitoneal (IP) administration, preclinical

catumaxomab
local concentration of the antibody in the ascites fluid: high local concentrations
systemic exposure, detectable in plasma: < 5%
